Columns and labels:
[1] = molecular target: T1, Strep-tagged EPRS mono-phosphomimetic S990D (Homo sapiens (Human), UniProt P07814 1-1512); experiment: Strep precipitation from 293T cells, immunoblot
T1 construct: Expressed in 293T cells; also called EPRS S990D; not shown: Strep tag

[2] = molecular target: T2, EPRS, endogenous protein of U937 cells (human, UniProt P07814 1-1512, phospho-Ser990 induced by PR8 infection; phospho-Ser886 also detected); experiment: endogenous co-IP with anti-EPRS antibody, PR8-infected U937 cells
T2 construct: Endogenous protein immunoprecipitated with anti-EPRS antibody; also called glutamyl-prolyl-tRNA synthetase

[3] = molecular target: T3, Strep-EPRS (Strep-tagged full-length glutamyl-prolyl-tRNA synthetase, wild type) (Homo sapiens (Human), UniProt P07814 1-1512); experiment: Strep precipitation of 293T lysates expressing Strep-EPRS and forms of GST-PCBP2, anti-GST immunoblot
T3 construct: Expressed in HEK293T cells and pulled down with Strep-Tactin; Mass spectrometry found phospho-Ser886, and phospho-Ser990 after PR8 infection; also called Strep-EPRS WT; not shown: Strep tag

[4] = molecular target: T4, MAVS, endogenous protein of RAW264.7 cells (UniProt Q8VCF0 1-503); experiment: endogenous immunoprecipitation with anti-PCBP2 antibody, PR8-infected RAW264.7 cells
T4 sequence (looked up): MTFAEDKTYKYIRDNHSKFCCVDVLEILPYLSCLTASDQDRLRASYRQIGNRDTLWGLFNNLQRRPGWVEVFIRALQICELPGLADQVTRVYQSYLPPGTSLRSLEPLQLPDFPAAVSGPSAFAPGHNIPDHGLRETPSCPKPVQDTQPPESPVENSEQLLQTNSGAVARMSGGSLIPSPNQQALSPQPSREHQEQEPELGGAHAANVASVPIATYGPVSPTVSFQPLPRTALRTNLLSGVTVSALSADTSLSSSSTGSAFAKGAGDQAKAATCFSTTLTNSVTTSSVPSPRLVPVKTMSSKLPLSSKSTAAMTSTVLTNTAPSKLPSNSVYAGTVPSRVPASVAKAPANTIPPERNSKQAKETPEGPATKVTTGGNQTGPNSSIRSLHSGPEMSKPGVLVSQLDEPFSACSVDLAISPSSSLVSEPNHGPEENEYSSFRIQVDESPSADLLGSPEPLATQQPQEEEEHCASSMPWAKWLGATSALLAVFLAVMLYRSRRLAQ

[5] = molecular target: T5, EPRS, endogenous protein of RAW264.7 cells (UniProt Q8CGC7 1-1512, phospho-Ser990 induced by PR8 infection); experiment: as above
T5 construct: Endogenous protein in cell lysates; The mouse origin is inferred from the cell line
T5 sequence (Q8CGC7 whole entry): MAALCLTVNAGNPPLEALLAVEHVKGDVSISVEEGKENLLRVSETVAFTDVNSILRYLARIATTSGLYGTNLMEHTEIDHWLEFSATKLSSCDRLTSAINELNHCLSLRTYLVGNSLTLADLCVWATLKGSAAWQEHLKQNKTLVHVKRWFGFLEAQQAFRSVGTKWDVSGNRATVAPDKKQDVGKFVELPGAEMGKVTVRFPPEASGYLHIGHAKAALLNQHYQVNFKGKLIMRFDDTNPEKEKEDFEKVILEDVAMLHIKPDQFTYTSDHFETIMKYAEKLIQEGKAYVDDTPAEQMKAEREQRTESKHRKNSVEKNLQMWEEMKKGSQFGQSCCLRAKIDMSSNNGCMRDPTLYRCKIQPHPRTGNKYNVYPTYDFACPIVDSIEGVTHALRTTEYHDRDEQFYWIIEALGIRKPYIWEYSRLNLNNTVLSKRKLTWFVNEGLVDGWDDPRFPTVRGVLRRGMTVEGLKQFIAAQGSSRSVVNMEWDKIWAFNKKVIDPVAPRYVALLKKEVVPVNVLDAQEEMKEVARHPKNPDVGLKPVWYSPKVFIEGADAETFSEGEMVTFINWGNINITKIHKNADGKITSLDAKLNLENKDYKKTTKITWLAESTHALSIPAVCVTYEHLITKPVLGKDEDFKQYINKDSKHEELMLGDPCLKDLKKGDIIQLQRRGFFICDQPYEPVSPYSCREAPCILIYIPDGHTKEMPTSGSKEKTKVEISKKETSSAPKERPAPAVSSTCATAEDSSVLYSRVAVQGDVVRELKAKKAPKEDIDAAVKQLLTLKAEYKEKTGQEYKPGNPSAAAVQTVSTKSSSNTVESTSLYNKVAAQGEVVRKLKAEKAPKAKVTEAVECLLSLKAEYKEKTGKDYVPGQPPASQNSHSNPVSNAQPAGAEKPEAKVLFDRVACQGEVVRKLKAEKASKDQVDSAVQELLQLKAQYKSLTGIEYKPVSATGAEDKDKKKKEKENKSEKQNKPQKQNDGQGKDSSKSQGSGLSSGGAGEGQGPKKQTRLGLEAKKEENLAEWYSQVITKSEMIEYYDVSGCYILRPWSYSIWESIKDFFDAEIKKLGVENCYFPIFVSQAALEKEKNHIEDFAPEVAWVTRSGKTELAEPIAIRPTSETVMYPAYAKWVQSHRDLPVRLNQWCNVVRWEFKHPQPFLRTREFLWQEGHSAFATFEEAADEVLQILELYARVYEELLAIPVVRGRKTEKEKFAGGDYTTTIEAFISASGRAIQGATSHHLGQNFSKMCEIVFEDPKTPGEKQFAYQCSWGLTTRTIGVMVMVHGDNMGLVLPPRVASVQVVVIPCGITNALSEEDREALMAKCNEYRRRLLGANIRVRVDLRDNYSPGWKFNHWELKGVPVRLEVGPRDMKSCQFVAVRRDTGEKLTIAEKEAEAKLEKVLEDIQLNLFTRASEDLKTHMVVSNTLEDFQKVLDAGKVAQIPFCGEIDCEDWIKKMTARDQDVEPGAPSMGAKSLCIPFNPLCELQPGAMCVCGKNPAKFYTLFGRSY

[6] = molecular target: T6, His-tagged EPRS (aa 1-168; GST-like domain alone), purified from E. coli (Homo sapiens (Human), UniProt P07814 1-168); experiment: in vitro His-tag (Ni-NTA) precipitation with purified proteins
T6 construct: not shown: hexahistidine tag
T6 sequence: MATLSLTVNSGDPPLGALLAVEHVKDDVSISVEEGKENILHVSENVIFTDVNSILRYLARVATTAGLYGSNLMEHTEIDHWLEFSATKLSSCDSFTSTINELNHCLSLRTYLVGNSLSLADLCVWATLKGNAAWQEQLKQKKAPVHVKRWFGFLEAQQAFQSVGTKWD

[7] = molecular target: T7, His-tagged EPRS (aa 1-196), purified from E. coli (Homo sapiens (Human), UniProt P07814 1-196); experiment: in vitro His-tag (Ni-NTA) precipitation with purified proteins, Coomassie
T7 construct: also called GST and L1 regions of EPRS; not shown: hexahistidine tag
T7 sequence: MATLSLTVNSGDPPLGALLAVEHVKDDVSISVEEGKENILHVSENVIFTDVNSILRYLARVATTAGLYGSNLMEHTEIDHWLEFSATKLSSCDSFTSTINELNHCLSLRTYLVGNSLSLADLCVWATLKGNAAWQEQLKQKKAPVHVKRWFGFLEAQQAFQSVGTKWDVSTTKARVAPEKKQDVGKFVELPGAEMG

[8] = molecular target: T2, EPRS, endogenous protein of U937 cells; experiment: endogenous co-IP with anti-EPRS antibody from PR8-infected U937 cells, anti-GAPDH immunoblot
[9] = molecular target: T3, Strep-EPRS (Strep-tagged full-length …); experiment: Strep-EPRS complexes from PR8-infected 293T cells, mass spectrometry
[10] = molecular target: T8, MAVS-FLAG (mitochondrial antiviral-signaling protein expressed in 293T cells) (UniProt Q7Z434 1-540); experiment: anti-FLAG co-IP of 293T lysates expressing MAVS and forms of GST-PCBP2, anti-GST immunoblot
T8 construct: also called exogenous MAVS; not shown: FLAG tag
T8 sequence (Q7Z434 whole entry): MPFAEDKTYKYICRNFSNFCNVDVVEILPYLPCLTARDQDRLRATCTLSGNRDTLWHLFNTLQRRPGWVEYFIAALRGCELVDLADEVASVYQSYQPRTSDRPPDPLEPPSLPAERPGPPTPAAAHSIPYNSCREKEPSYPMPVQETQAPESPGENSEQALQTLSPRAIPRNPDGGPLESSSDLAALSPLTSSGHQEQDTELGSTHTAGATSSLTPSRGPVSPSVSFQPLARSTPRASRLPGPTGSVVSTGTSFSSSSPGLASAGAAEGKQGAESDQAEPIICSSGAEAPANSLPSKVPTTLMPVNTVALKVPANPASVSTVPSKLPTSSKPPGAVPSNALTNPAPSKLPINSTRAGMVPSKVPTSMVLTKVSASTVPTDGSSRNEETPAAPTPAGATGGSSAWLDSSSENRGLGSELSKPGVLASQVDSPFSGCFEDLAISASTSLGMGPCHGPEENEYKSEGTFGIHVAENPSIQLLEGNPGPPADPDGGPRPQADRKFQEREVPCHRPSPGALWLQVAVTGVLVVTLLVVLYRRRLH

B1: AIMP3 (ARS-interacting multifunctional protein 3), endogenous protein of human cells (U937, 293T) (other, UniProt O43324 2-174, looked up)
chain: AAAAELSLLEKSLGLSKGNKYSAQGERQIPVLQTNNGPSLTGLTTIAAHLVKQANKEYLLGSTAEEKAIVQQWLEYRVTQVDGHSSKNDIHTLLKDLNSYLEDKVYLTGYNFTLADILLYYGLHRFIVDLTVQEKEKYLNVSRWFCHIQHYPGIRQHLSSVVFIKNRLYTNSH
[1]
  binding result: no binding

B2: PCBP2, endogenous protein of human cells (293T, U937) (other, UniProt Q15366 1-365, looked up)
chain: MDTGVIEGGLNVTLTIRLLMHGKEVGSIIGKKGESVKKMREESGARINISEGNCPERIITLAGPTNAIFKAFAMIIDKLEEDISSSMTNSTAASRPPVTLRLVVPASQCGSLIGKGGCKIKEIRESTGAQVQVAGDMLPNSTERAITIAGIPQSIIECVKQICVVMLETLSQSPPKGVTIPYRPKPSSSPVIFAGGQDRYSTGSDSASFPHTTPSMCLNPDLEGPPLEAYTIQGQYAIPQPDLTKLHQLAMQQSHFPMTHGNTGFSGIESSSPEVKGYWGLDASAQTTSHELTIPNDLIGCIIGRQGAKINEIRQMSGAQIKIANPVEGSTDRQVTITGSAASISLAQYLINVRLSSETGGMGSS
notes: also called PBP2
[2]
  binding result: binds

B3: GST-PCBP2 linker region, expressed in 293T cells (other, UniProt Q15366 168-279, looked up)
chain: ETLSQSPPKGVTIPYRPKPSSSPVIFAGGQDRYSTGSDSASFPHTTPSMCLNPDLEGPPLEAYTIQGQYAIPQPDLTKLHQLAMQQSHFPMTHGNTGFSGIESSSPEVKGYW
notes: domain: linker region; not shown: GST tag
[3]
  binding result: no binding

B4: PCBP2, endogenous protein of RAW264.7 cells (other, UniProt Q61990 1-362, looked up)
chain: MDTGVIEGGLNVTLTIRLLMHGKEVGSIIGKKGESVKKMREESGARINISEGNCPERIITLAGPTNAIFKAFAMIIDKLEEDISSSMTNSTAASRPPVTLRLVVPASQCGSLIGKGGCKIKEIRESTGAQVQVAGDMLPNSTERAITIAGIPQSIIECVKQICVVMLESPPKGVTIPYRPKPSSSPVIFAGGQDRYSTGSDSASFPHTTPSMCLNPDLEGPPLEAYTIQGQYAIPQPDLTKLHQLAMQQSHFPMTHGNTGFSGIESSSPEVKGYWAGLDASAQTTSHELTIPNDLIGCIIGRQGAKINEIRQMSGAQIKIANPVEGSTDRQVTITGSAASISLAQYLINVRLSSETGGMGSS
notes: also called PBP2
[4]
  binding result: binds
[5]
  binding result: binds

B5: GST-fused PCBP2 KH1 (aa 11-82), purified from E. coli (other, UniProt Q15366 11-82, looked up)
chain: NVTLTIRLLMHGKEVGSIIGKKGESVKKMREESGARINISEGNCPERIITLAGPTNAIFKAFAMIIDKLEED
notes: range 11-82; also called PCBP2 KH1 (aa 11-82) domain; not shown: GST
[6]
  binding result: no binding
[7]
  binding result: binds

B6: GAPDH (glyceraldehyde-3-phosphate dehydrogenase), endogenous protein of human cells (U937, 293T) (enzyme)
chain: not shown
[8]
  binding result: no binding
[9]
  binding result: no binding

B7: GST-PCBP2 N-terminal KH1 domain (aa 1-81), expressed in 293T cells (other, UniProt Q15366 1-81, looked up)
chain: MDTGVIEGGLNVTLTIRLLMHGKEVGSIIGKKGESVKKMREESGARINISEGNCPERIITLAGPTNAIFKAFAMIIDKLEE
notes: range 1-81; also called PCBP2 KH1; not shown: GST tag
[10]
  binding result: binds
[3]
  binding result: binds

B8: MRS (methionyl-tRNA synthetase), endogenous protein of 293T cells (enzyme, UniProt P56192 1-900, looked up)
chain: MRLFVSDGVPGCLPVLAAAGRARGRAEVLISTVGPEDCVVPFLTRPKVPVLQLDSGNYLFSTSAICRYFFLLSGWEQDDLTNQWLEWEATELQPALSAALYYLVVQGKKGEDVLGSVRRALTHIDHSLSRQNCPFLAGETESLADIVLWGALYPLLQDPAYLPEELSALHSWFQTLSTQEPCQRAAETVLKQQGVLALRPYLQKQPQPSPAEGRAVTNEPEEEELATLSEEEIAMAVTAWEKGLESLPPLRPQQNPVLPVAGERNVLITSALPYVNNVPHLGNIIGCVLSADVFARYSRLRQWNTLYLCGTDEYGTATETKALEEGLTPQEICDKYHIIHADIYRWFNISFDIFGRTTTPQQTKITQDIFQQLLKRGFVLQDTVEQLRCEHCARFLADRFVEGVCPFCGYEEARGDQCDKCGKLINAVELKKPQCKVCRSCPVVQSSQHLFLDLPKLEKRLEEWLGRTLPGSDWTPNAQFITRSWLRDGLKPRCITRDLKWGTPVPLEGFEDKVFYVWFDATIGYLSITANYTDQWERWWKNPEQVDLYQFMAKDNVPFHSLVFPCSALGAEDNYTLVSHLIATEYLNYEDGKFSKSRGVGVFGDMAQDTGIPADIWRFYLLYIRPEGQDSAFSWTDLLLKNNSELLNNLGNFINRAGMFVSKFFGGYVPEMVLTPDDQRLLAHVTLELQHYHQLLEKVRIRDALRSILTISRHGNQYIQVNEPWKRIKGSEADRQRAGTVTGLAVNIAALLSVMLQPYMPTVSATIQAQLQLPPPACSILLTNFLCTLPAGHQIGTVSPLFQKLENDQIESLRQRFGGGQAKTSPKPAVVETVTTAKPQQIQALMDEVTKQGNIVRELKAQKADKNEVAAEVAKLLDLKKQLAVAEGKPPEAPKGKKKK
notes: 293T cells are a human line
[1]
  binding result: no binding
